Results: publication doi:10.1101/2023.04.03.535455 (bioRxiv, 2023)

T1: His-PI31 wild-type (human) (human), Q92530
T1 chain: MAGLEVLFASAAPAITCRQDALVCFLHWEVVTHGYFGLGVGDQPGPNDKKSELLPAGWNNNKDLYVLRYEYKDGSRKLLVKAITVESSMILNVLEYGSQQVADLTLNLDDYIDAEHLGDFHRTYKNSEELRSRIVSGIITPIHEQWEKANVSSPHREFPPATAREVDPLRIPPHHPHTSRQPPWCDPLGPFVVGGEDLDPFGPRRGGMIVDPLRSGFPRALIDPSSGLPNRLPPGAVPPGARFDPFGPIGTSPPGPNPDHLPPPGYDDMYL

T2: recombinant wild-type human PI31 (Proteasome Inhibitor of 31,000 daltons) (human, UniProt Q92530 1-271)
T2 sequence: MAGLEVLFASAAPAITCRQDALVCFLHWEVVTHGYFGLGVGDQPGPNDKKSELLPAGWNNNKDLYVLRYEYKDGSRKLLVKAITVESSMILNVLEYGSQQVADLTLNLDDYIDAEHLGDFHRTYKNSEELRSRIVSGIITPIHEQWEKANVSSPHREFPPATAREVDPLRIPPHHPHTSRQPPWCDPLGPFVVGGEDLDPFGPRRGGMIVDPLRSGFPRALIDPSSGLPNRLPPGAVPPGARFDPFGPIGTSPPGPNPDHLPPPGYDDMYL


Key:
[1] = molecular target: T1, His-PI31 wild-type (human) (human), …; assay: mass photometry; conditions: remark: other sources report otherwise
[2] = molecular target: T2, recombinant wild-type human PI31 …; assay: cryo-EM structure

Binder	stoichiometry N [1]	binding result [2]
His-PI31 wild-type (human), Q92530 1-271 (natural protein) MAGLEVLFASAAPAITCRQDALVCFLHWEVVTHGYFGLGVGDQPGPNDKKSELLPAGWNNNKDLYVLRYEYKDGSRKLLVKAITVESSMILNVLEYGSQQVADLTLNLDDYIDAEHLGDFHRTYKNSEELRSRIVSGIITPIHEQWEKANVSSPHREFPPATAREVDPLRIPPHHPHTSRQPPWCDPLGPFVVGGEDLDPFGPRRGGMIVDPLRSGFPRALIDPSSGLPNRLPPGAVPPGARFDPFGPIGTSPPGPNPDHLPPPGYDDMYL	2	–
β2 subunit of the bovine 20S proteasome (natural protein) TTIAGVVYKDGIVLGADTRATEGMVVADKNCSKIHFISPNIYCCGAGTAADTDMTTQLISSNLELHSLSTGRLPRVVTANRMLKQMLFRYQGYIGAALVLGGVDVTGPHLYSIYPHGSTDKLPYVTMGSGSLAAMAVFEDKFRPDMEEEEAKKLVSEAIAAGIFNDLGSGSNIDLCVISKSKLDFLRPYSVPNKKGTRFGRYRCEKGTNAVLTEKVTTLEIEVLEETVQTMDTS	–	binds
β5 subunit of the bovine 20S proteasome (natural protein) TTTLAFKFRHGVIVAADSRATAGAYIASQTVKKVIEINPYLLGTMAGGAADCSFWERLLARQCRIYELRNKERISVAAASKLLANMVYQYKGMGLSMGTMICGWDKRGPGLYYVDSEGNRISGATFSVGSGSVYAYGVMDRGYSYDLEVEEAYDLARRAIYQATYRDAYSGGSVSLYHVREDGWIRVSSDNVADLHDKYSGSTH	–	binds
